The target in the test is T1, recombinant human Flt-1/Fc chimera (R&D System 321-FL) (human, UniProt P17948 27-758).
T1 construct: extracellular domain; Bought from R&D Systems; also called VEGF-R1 extracellular domain Ig fusion; full-length VEGF-Receptor 1 extracellular domain; Fc part of the bought chimera not given
The test is described as follows: solution equilibrium: 10 pM human VEGF165 incubated overnight with 0.05-1000 pM binder, unbound VEGF165 measured by ELISA, curve fit. The method, then:
FIG. 4. Binding affinity analysis of VEGF-binding proteins. In brief, a fixed concentration of human VEGF₁₆₅ (10 pM) was incubated overnight at room temperature with varying concentrations (0.05 pM to 1000 pM) of VEGF binding proteins. 20 hours later, concentration of unbound VEGF₁₆₅ was measured by ELISA. Binding curves were fitted using Prizm software.

T1 sequence (P17948 27-758, change not shown): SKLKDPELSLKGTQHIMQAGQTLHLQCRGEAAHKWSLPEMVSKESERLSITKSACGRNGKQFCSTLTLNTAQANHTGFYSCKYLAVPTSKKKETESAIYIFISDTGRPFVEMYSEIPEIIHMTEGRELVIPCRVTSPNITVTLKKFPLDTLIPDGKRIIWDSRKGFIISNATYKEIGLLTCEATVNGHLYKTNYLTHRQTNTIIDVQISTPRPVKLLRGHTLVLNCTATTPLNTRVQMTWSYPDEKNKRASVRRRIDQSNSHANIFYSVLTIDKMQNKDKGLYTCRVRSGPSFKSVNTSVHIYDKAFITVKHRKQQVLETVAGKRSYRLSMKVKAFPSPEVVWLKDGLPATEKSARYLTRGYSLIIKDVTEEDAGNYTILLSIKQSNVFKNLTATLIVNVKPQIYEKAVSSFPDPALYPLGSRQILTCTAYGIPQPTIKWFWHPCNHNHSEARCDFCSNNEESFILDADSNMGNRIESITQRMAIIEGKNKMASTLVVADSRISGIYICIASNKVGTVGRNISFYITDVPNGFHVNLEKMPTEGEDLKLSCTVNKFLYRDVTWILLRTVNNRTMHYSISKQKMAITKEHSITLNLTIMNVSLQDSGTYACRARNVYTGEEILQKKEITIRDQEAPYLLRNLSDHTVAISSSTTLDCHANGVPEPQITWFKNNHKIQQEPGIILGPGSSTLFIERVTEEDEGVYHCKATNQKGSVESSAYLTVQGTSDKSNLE

B1: human VEGF165 (ligand, UniProt P15692-4 27-191, looked up)
chain: APMAEGGGQNHHEVVKFMDVYQRSYCHPIETLVDIFQEYPDEIEYIFKPSCVPLMRCGGCCNDEGLECVPTEESNITMQIMRIKPHQGQHIGEMSFLQHNKCECRPKKDRARQENPCGPCSERRKHLFVQDPQTCKCSCKNTDSRCKARQLELNERTCRCDKPRR
In the case of B1, the equilibrium dissociation constant (Kd) is 0.0259 nM.
